# Legend:
# [1] = biological target: human CD2 (CD2 antigen, entire CD2 molecule) (human) (UniProt P06729); assay: flow cytometry, two colour staining of human PBMC (data not shown)
# [2] = biological target: human CD2 (CD2 antigen, entire CD2 molecule) (human) (UniProt P06729); assay: flow cytometry, two colour staining of PBMC with biotinylated LO-CD2a and Leu-5bPE (Figure 1)
# [3] = biological target: human CD2 (CD2 antigen, entire CD2 molecule) (human) (UniProt P06729); assay: flow cytometry on PBMC cultured with 500 ng/ml LO-CD2a, bound antibody detected with MARK-3-FITC (Figure 5a)
# Sequence of UniProt P06729 (P06729 25-351): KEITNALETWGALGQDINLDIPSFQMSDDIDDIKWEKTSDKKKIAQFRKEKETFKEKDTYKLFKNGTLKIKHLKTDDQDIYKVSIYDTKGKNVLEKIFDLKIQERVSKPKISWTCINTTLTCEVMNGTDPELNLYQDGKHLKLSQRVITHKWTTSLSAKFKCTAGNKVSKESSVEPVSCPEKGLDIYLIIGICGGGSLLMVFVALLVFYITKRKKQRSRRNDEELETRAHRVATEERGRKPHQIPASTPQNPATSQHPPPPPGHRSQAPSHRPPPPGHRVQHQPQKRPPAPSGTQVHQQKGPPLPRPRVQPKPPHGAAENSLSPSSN
percent of the population marked by T11 that is recognized [1] [%],% gated cells in the upper right (double positive) quadrant [2] [% gated],% total cells in the upper right (double positive) quadrant [2] [% total],percent of cells labelled by MARK-3 (bound LO-CD2a) at day 6 of culture [3] [%],Substance
90,66,17,50,"LO-CD2a rat (IgG2b-Kappa) anti-CD2 monoclonal antibody, produced by the cell line ATCC HB 11423"
,66,17,,"Leu-5b, mouse anti-human-CD2 monoclonal antibody (Becton Dickinson)"

# Source: EP0959899A1
